In the supplement of paper PMC10724198:
± gives the standard deviation of the averaged measurements.

Tested on: Saccharomyces cerevisiae
Assay: protein stability index of tFT-peptide fusion (C-terminal peptide) (PSI (0-1 scale)); higher = more stable (slower turnover)
Details: genetic background: wild type; temperature: 30 C
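Also: PSI is a weighted mean of sequencing reads over stability bins, variants kept only with over 10 reads, mCherry proximal and sfGFP distal, peptide attached via GGGS linker.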

| Sequence | protein stability index |
| --- | --- |
| RVLIPLASSPPL | 0.77 ± 0.23 |
| RVLPASRFSFLF | 0.743 ± 0.036 |
| RVMGWWGARVLG | 0.697 ± 0.027 |
| RVNTFHANKWRW | 0.7134 ± 0.0013 |
| RVPLSPSLRYFV | 0.653 ± 0.026 |
| RVPNLYLRSRKI | 0.68 ± 0.034 |
| RVQELEDGCAAE | 0.658 ± 0.024 |
| RVRGGAGRGKRE | 0.686 ± 0.032 |
| RVRLAPAPASIR | 0.7458 ± 0.0047 |
| RVRVGGPRESGQ | 0.7054 ± 0.00082 |
| RVSVYTFVSLSN | 0.619 ± 0.035 |
| RVSYLLPFCSSV | 0.762 ± 0.11 |
| RVVYANSRVSDN | 0.6479 ± 0.0055 |
| RVWVGGPRESGQ | 0.72118 ± 0.00022 |
| RVYGSFFYVSLL | 0.66 ± 0.13 |
| RWCVGFRLCHDS | 0.636 ± 0.019 |
| RWGPGRSGSRGA | 0.652 ± 0.022 |
| RWGWGGYRGGVP | 0.7572 ± 0.0061 |
| RWLGNPLLQRYH | 0.567 ± 0.043 |
| RWLWRLDNRIVI | 0.62081 ± 4.7e-05 |
| RYCSLARSCPSG | 0.678 ± 0.027 |
| RYGTGQLDYCFI | 0.717 ± 0.018 |
| RYHQFSFQSNKS | 0.764 ± 0.072 |
| RYKISKKERIKK | 0.663 ± 0.072 |
| RYKTESKRDIEK | 0.696 ± 0.062 |

| Sequence | protein stability index |
| --- | --- |
| RYLFAAVSFGYA | 0.726 ± 0.032 |
| RYLTLVTNLLCP | 0.647 ± 0.0024 |
| RYPLRPLLLPPP | 0.741 ± 0.16 |
| RYRDSKPDIVDC | 0.723 ± 0.038 |
| RYSPPPPPIPSP | 0.715 ± 0.0022 |
| RYTQQTTATYHN | 0.749 ± 0.079 |
| RYTTCPVLNPGV | 0.618 ± 0.018 |
| RYWCATHIGACL | 0.788 ± 0.093 |
| SAFGGAGVLGHR | 0.6799 ± 0.0027 |
| SAIAVDSPLGRG | 0.653 ± 0.023 |
| SALGPVLCRGSY | 0.675 ± 0.067 |
| SALSLDNLIHSY | 0.676 ± 0.071 |
| SAPALPCQSPRL | 0.696 ± 0.011 |
| SAPCHAHHLPYQ | 0.73 ± 0.026 |
| SAPPLFPCPSPA | 0.68 ± 0.03 |
| SARPTVNRPARN | 0.6933 ± 0.0049 |
| SARVVCSSCFPM | 0.668 ± 0.017 |
| SAVLLLNAGGLV | 0.688 ± 0.0071 |
| SAVVPACIPKCE | 0.694 ± 0.035 |
| SAWHRGCSCHLC | 0.682 ± 0.029 |
| SAWVGVGHGRVS | 0.6113 ± 0.0056 |
| SAYQDFTAILLG | 0.703 ± 0.16 |
| SCGVTRVGALST | 0.664 ± 0.013 |
| SCGYRGSSAFSF | 0.62 ± 0.2 |
| SCIRATGSNVSP | 0.664 ± 0.029 |

| Sequence | protein stability index |
| --- | --- |
| SCKLSPLGLLLL | 0.618 ± 0.016 |
| SCLGGRISSRCG | 0.69 ± 0.017 |
| SCPSLPPPPPCL | 0.735 ± 0.04 |
| SCQISVRLHVSH | 0.612 ± 0.016 |
| SCQSPSSQEYST | 0.751 ± 0.056 |
| SCRKGLSPRPPS | 0.7 ± 0.007 |
| SCSFPPSPFLCG | 0.677 ± 0.03 |
| SCSLGIRSFFSL | 0.7 ± 0.021 |
| SCTRASSMSLSP | 0.674 ± 0.024 |
| SCVAGSSHWTSI | 0.712 ± 0.24 |
| SCVTLTGLSGDK | 0.698 ± 0.016 |
| SCWHRNRKIILD | 0.573 ± 0.056 |
| SDFGSFRFRSIV | 0.5773 ± 0.0018 |
| SDKVLSSTEIQN | 0.719 ± 0.039 |
| SDNIKIPKEKRK | 0.668 ± 0.026 |
| SEGCASLSGRVG | 0.665 ± 0.047 |
| SEGCPILALVKP | 0.638 ± 0.035 |
| SEHSTYFSRNCF | 0.726 ± 0.032 |
| SEIFTNALLISI | 0.651 ± 0.026 |
| SEIKVIMNESKS | 0.679 ± 0.009 |
| SEIRIQTFETGG | 0.671 ± 0.061 |
| SEWFETRNPMSI | 0.685 ± 0.096 |
| SEYPCSDRAEVA | 0.65 ± 0.017 |
